Data taken from patent US20240116985A1 (published 2024).
Starred links: 1 amine or outer side, 2 acyl side, 3 side chain; linkers in the order of their positions; H or OH if unused. Positions of bridges follow the written chain, without caps; N, C: chain ends. Non-standard residues stand in square brackets, D forms with d. Primed or numbered codes have the meaning given here. PyrS2″ = (S)-3-amino-1-((pent-4-en-1-yloxy)carbonyl)pyrrolidine-3-carboxylic acid (stapling residue), C=CCCCOC(=O)N1CC[C@@](N[*:1])(C(=O)[*:2])C1; B5(16) = 2-amino-2-(pent-4-en-1-yl)hept-6-enoic acid = 2,2-bis(4-pentenyl)glycine (stitching residue), C=CCCCC(CCCC=C)(N[*:1])C(=O)[*:2]; B5(17) = 2,2-bis(4-pentenyl)glycine = 2-amino-2-(pent-4-en-1-yl)hept-6-enoic acid, stitching residue, C=CCCCC(CCCC=C)(N[*:1])C(=O)[*:2]; B5(4) = 2,2-bis(4-pentenyl)glycine = 2-amino-2-(pent-4-en-1-yl)hept-6-enoic acid (stitching residue), C=CCCCC(CCCC=C)(N[*:1])C(=O)[*:2]; B5(21) = 2-amino-2-(pent-4-en-1-yl)hept-6-enoic acid, bis(4-pentenyl)glycine (stitching residue), C=CCCCC(CCCC=C)(N[*:1])C(=O)[*:2]; TfeGA = (S)-2-amino-3-((carboxymethyl)(2,2,2-trifluoroethyl)amino)propanoic acid, O=C([C@H](CN(CC(=O)[*:3])CC(F)(F)F)N[*:1])[*:2]; SeN = (S)-5-(((allyloxy)carbonyl)(methyl)amino)-2-amino-2-methylpentanoic acid, C=CCOC(=O)N(C)CCC[C@](C)(N[*:1])C(=O)[*:2]; SdN = (S)-4-(((allyloxy)carbonyl)(methyl)amino)-2-amino-2-methylbutanoic acid, C=CCOC(=O)N(C)CC[C@](C)(N[*:1])C(=O)[*:2]; B5(3) = 2,2-bis(4-pentenyl)glycine (stitching residue), C=CCCCC(CCCC=C)(N[*:1])C(=O)[*:2]; B5 = 2-amino-2-(pent-4-en-1-yl)hept-6-enoic acid, C=CCCCC(CCCC=C)(N[*:1])C(=O)[*:2]; Phe(2-Cl) = N[C@@H](Cc1ccccc1Cl)C(=O)O; Bta = N[C@@H](Cc1csc2ccccc12)C(=O)O; αAllylPro = C=CC[C@@]1(C(=O)O)CCCN1; tBuAla = CC(C)(C)C[C@H](N)C(=O)O; 3Thi = N[C@@H](Cc1ccsc1)C(=O)O; S8 = C=CCCCCCC[C@](C)(N)C(=O)O

T1: B-cat-Halo (beta-catenin HaloTag construct expressed in HEK293 cells) (UniProt P35222 1-781)
T1 sequence (looked up): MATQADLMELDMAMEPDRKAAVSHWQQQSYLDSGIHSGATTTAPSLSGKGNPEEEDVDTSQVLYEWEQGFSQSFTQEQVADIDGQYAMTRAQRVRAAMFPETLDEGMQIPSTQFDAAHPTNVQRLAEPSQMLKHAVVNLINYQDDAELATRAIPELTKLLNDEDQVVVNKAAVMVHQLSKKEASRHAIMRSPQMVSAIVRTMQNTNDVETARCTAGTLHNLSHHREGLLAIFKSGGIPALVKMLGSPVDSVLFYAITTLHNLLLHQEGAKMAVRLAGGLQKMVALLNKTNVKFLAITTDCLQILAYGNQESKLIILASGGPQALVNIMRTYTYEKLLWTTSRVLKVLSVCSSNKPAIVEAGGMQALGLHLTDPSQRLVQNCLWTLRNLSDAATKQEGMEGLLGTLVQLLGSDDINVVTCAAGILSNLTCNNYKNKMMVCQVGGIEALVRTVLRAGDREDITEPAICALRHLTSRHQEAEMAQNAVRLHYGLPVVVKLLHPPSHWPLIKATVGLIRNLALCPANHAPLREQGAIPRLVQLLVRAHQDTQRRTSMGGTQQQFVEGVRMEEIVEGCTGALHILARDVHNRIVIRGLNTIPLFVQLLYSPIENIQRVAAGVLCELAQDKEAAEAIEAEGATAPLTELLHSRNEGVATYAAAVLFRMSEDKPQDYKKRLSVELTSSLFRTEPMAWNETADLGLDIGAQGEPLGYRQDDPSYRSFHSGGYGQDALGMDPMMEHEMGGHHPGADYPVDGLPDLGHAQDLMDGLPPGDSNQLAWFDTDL

T2: beta-catenin in DLD1 TCF/LEF luciferase reporter cells (UniProt P35222 1-781)
T2 sequence (looked up): T1 sequence (looked up)

T3: B-cat-Halo (UniProt P35222 1-781)
T3 sequence (looked up): T1 sequence (looked up)

T4: B-cat-Halo (UniProt P35222 1-781)
T4 construct: Expressed by transfection in HEK293 cells for the NanoBRET assay; also called beta-catenin HaloTag NanoBRET construct; not shown: HaloTag
T4 sequence (looked up): T1 sequence (looked up)

T5: full-length beta-Catenin (Uniprot ID P35222) (Homo sapiens (Human), UniProt P35222 1-781)
T5 construct: The assay protocol says 'full-length'; also called bCat; B-Catenin
T5 sequence: T1 sequence (looked up)

T6: full-length beta-Catenin (Uniprot ID P35222) (Homo sapiens (Human), UniProt P35222 2-781)
T6 construct: Used at 10 nM in the FP probe solution as 'full-length'; Also used here for the endogenous beta-catenin of the DLD1 TCF/LEF reporter cells (functional rows); also called bCat; B-Catenin
T6 sequence: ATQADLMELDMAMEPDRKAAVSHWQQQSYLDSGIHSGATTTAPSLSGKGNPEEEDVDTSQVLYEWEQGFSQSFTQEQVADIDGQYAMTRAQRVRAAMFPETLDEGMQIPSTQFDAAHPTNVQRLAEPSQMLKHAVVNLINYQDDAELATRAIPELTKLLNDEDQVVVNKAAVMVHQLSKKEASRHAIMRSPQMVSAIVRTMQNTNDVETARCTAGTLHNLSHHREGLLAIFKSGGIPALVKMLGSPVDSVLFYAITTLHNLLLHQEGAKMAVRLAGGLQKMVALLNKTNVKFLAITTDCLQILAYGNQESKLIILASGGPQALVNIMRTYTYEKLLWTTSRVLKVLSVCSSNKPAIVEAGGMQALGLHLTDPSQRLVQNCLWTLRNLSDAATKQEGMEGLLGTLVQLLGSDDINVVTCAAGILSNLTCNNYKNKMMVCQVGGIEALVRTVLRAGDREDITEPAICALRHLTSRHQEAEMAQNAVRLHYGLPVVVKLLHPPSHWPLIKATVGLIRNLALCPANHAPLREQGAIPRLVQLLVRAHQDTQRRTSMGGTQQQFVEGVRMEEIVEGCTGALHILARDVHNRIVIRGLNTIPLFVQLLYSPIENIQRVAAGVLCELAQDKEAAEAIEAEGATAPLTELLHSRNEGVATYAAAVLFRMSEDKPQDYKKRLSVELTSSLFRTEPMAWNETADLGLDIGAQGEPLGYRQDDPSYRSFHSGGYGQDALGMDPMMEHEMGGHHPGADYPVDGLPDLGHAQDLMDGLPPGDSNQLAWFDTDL

B1: I-814 (peptide)
peptide: Ac-[αAllylPro]D[tBuAla][B5]DDAAFN[PyrS2″][3Thi][Bta]T-NH2
modifications: staple 1-4, 4-11
B2: I-990 (peptide)
peptide: Ac-[αAllylPro]D[tBuAla][B5(3)]D[TfeGA]AAFF[PyrS2″][Phe(2-Cl)][Bta]S-NH2
modifications: staple 1-4, 4-11
B3: I-988 (peptide)
peptide: Ac-[αAllylPro]D[tBuAla][B5(3)]D[TfeGA]AAFF[PyrS2″]F[Bta]Q-NH2
modifications: staple 1-4, 4-11
B4: I-565 (peptide)
peptide: Ac-[αAllylPro]DL[B5(21)]DDAAFN[S8]F[Bta]H-NH2
modifications: staple 1-4, 4-11; not fully specified
notes: Stapled peptide composition; also called Ac-PL3-Asp-Leu-B5-Asp-Asp-Ala-Ala-Phe-Asn-S8-Phe-BztA-His-NH2
B5: I-576 (peptide)
peptide: XDLXDEAAFNXFXQ
modifications: not fully specified; N-terminal Ac; C-terminal NH2; non-natural PL3 (1), B5 (4), S8 (11), BztA (13); stapled PL3-B5 and B5-S8 by olefin metathesis
notes: Stapled peptide composition; also called Ac-PL3-Asp-Leu-B5-Asp-Glu-Ala-Ala-Phe-Asn-S8-Phe-BztA-Gln-NH2
B6: I-577 (peptide)
peptide: Ac-[αAllylPro]DL[B5(21)]DEAAFN[S8]F[Bta]Q-NH2
modifications: staple 1-4, 4-11; not fully specified
notes: as for B5
B7: I-54: Ac-PL3-Asp-Ala-B5-Asp-Asp-Ala-Ala-Phe-Val-SeN-Phe-Trp-Gln-NH2 (stapled peptide) (peptide)
peptide: Ac-[αAllylPro]DA[B5(4)]DDAAFV[SeN]FWQ-NH2
modifications: staple 1-4, 4-11; not fully specified; printed as Ac-PL3-Asp-Ala-B5-Asp-Asp-Ala-Ala-Phe-Val-SeN-Phe-Trp-Gln-NH2
notes: Same description as I-53
B8: I-64: Ac-Ala-Asp-Ile-RdN-Asp-Asp-Ala-Ala-Phe-Gln-S7-Phe-Trp-His-NH2 (stapled peptide) (peptide)
peptide: ADIXDDAAFQXFWH
modifications: not fully specified; N-terminal acetyl (Ac); C-terminal amide (NH2); RdN at position 4 and S7 at position 11 (non-natural olefin amino acids); stapled by olefin metathesis RdN-S7
notes: Same description as I-65
B9: I-52: Ac-PL3-Asp-Ala-B5-Asp-Asp-Ala-Ala-Phe-Val-S8-Phe-Trp-Gln-NH2 (stapled peptide) (peptide)
peptide: Ac-[αAllylPro]DA[B5(21)]DDAAFV[S8]FWQ-NH2
modifications: staple 1-4, 4-11
notes: Tested as stapled peptide composition
B10: I-55: Ac-PL3-Asp-Ala-B5-Asp-Asp-Ala-Ala-Phe-Val-SdN-Phe-Trp-Gln-NH2 (stapled peptide) (peptide)
peptide: Ac-[αAllylPro]DA[B5(17)]DDAAFV[SdN]FWQ-NH2
modifications: staple 1-4, 4-11
notes: as for B9
B11: I-53: Ac-PL3-Asp-Ala-B5-Asp-Asp-Ala-Ala-Phe-Val-SeN-Phe-Trp-Gln-NH2 (stapled peptide) (peptide)
peptide: Ac-[αAllylPro]DA[B5(21)]DDAAFV[SeN]FWQ-NH2
modifications: staple 1-4, 4-11
notes: Same description as I-54
B12: I-1043 (peptide)
peptide: Ac-[αAllylPro]DF[B5(16)]DDAAFT[PyrS2″][Phe(2-Cl)][Bta]Q-NH2
modifications: staple 1-4, 4-11
notes: Stapled (stitched) peptide composition
B13: I-1049 (peptide)
peptide: Ac-[αAllylPro]DF[B5(4)]DDAAFT[PyrS2″][Phe(2-Cl)][Bta]S-NH2
modifications: staple 1-4, 4-11
notes: as for B12

target: T1, B-cat-Halo (beta-catenin HaloTag …); assay: cell-based or functional assay

Row | Binder | NanoBRET Abs IC50 [µM]
1 | B1 | 18.9

target: T2, beta-catenin in DLD1 TCF/LEF luciferase …; assay: cell-based or functional assay

Row | Binder | DLD1 4% Abs IC50 [µM]
2 | B1 | 16.5

target: T3, B-cat-Halo; assay: cell-based or functional assay

Row | Binder | NanoBRET Abs IC50 [µM]
3 | B2 | 8.8
4 | B3 | 13.9

target: T4, B-cat-Halo; assay: NanoBRET Abs IC50 in HEK293 cells; Bcat-Halo, TCF4-Luc as competitor

Row | Binder | IC50 [µM]
5 | B4 | 26
6 | B5 | 11.1
7 | B6 | 10.4

target: T5, full-length beta-Catenin (Uniprot ID …); assay: fluorescence polarization competition; full-length beta-catenin, 5FAM-TCF4(10-53) probe as competitor
Method: (§1) The plate was incubated protected from light for 60 minutes at 20° C. prior to read. Reads were performed on a CLARIOstar plate reader (BMG Labtech) in duplicate, and data were fitted to a 1:1 binding model with hill slope using an in-house script. All provided concentrations are final concentrations.

Row | Binder | IC50 [µM]
8 | B7 | 3.19
9 | B8 | 4.25
10 | B9 | 3.2
11 | B10 | 5
12 | B11 | 5

target: T6, full-length beta-Catenin (Uniprot ID …); assay: fluorescence polarization competition; 10 nM full-length beta-catenin + 10 nM 5FAM-TCF4 10-53 as competitor probe
Method: as §1

Row | Binder | EC50 [µM]
13 | B12 | 0.012
14 | B13 | 0.006
